Test results reported in PMC11549089.
Several values for one entry are separate records, joined by “and”; a condition that tells them apart may be missing. Equal entries are not always repeated.

Biological target: influenza A virus RNA polymerase (FluAPol) heterotrimer of human influenza A/NT/60/1968 (H3N2) (human influenza A/NT/60/1968 (H3N2) virus) (UniProt P03429)
Experiment: cryo-EM structure

Q: How did the stoichiometry N turn out when “influenza A virus RNA polymerase (FluAPol) heterotrimer of human influenza A/NT/60/1968 (H3N2) (from UniProt P03429) (complex)” was run?
A: 2 and 6
